Patent US20250387484A1 (US Dept. of Health and Human Services, published 2025)
Residue numbers refer to the chain shown, from its start.

B1: antibody 14569 (antibody, human IgG4 S228P, kappa, V domains shown)
VH: EVQLVESGGGLVQPGGSLRLSCAASGYWFSSWGMSWVRQAPGKGLELVSTINGYGDTTYYPDSVKGRFTISRDNSKNTLYLQMNSLRAEDTAVYYCARDRDYSNSYYYAHDYWGQGTLVTVSS
VL: EIVLTQSPATLSLSPGERATLSCRASSYVSFMHWLQQKPGQAPRPWIYATMNLASGVPARFSGSGSGTDYTLTISSLEPEDFAVYYCQQWSSNPPAFGGGTKVEIKR
B2: antibody 14564 (antibody, human IgG4 S228P, kappa, V domains shown)
VH: B1 VH with Y27F, W28T
VL: B1 VL with M51A
B3: antibody 14572 (antibody, human IgG4 S228P, kappa, V domains shown)
VH: B1 VH with W32Y, S103T
VL: B1 VL

Assays:
[1] = target: T1, human CD25 on KIT-225 cells (human, UniProt P01589 22-272); experiment: flow cytometry (FACS) on CD25-expressing KIT-225 cells, secondary antibody, MFI against antibody concentration
T1 construct: whole, on cells; also called hCD25; IL-2Rα
T1 sequence (looked up): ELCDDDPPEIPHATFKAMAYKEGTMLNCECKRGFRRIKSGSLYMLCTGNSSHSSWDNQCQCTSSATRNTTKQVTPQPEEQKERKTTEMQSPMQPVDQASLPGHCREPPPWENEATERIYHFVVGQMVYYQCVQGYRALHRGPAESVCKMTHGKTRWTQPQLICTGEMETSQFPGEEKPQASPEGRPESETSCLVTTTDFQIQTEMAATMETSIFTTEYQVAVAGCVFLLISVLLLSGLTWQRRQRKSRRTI
Protocol: KIT-225 cells were washed once with FACS buffer, counted, and resuspended at a concentration of 1×10⁶/mL in FACS buffer. To 5 mL (5×10⁶ total) of cells, 25 μL of viable dye (Thermo Fisher, L34974, equivalent to 1:200 dilution) was added and mixed well. After incubation at 4° C. for 30 minutes, cells were washed twice with FACS buffer (200×g, 5 minutes each). Cells were resuspended in 5 mL FACS buffer and 100 μL was added per well, followed by addition of 100 μL diluted antibody. The solution was mixed by pipetting up and down and then incubated at 4° C. for 60 minutes, after which cells were washed twice with FACS buffer (200×g, 5 minutes each). Cells were resuspended in 100 μL FACS buffer. Fifty μL of secondary antibody was diluted in 5 mL FACS buffer (equivalent to 1:100 dilution), and 100 μL was added to each well and mixed by pipetting up and down. Following incubation at 4° C. for 30 minutes, cells were washed twice with FACS buffer (200×g, 5 minutes each), and resuspended in approximately 250 μL FACS buffer. FACS analysis was performed with Attune Flow cytometer using tube reading module.

[2] = target: T2, cynomolgus CD25 (cynomolgus, UniProt H6WS54 22-213); experiment: SPR, Biacore 8K, antibody captured on Protein A chip, cynomolgus CD25 as analyte, 25 C
T2 construct: Analyte in the SPR assay; also called CD25 (sIL-2 Receptor α)
T2 sequence: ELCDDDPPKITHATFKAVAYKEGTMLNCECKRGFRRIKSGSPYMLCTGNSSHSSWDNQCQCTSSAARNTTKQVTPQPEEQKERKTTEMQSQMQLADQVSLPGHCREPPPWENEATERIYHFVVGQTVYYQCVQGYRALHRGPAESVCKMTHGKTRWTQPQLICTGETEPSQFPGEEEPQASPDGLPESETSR
Protocol: Running buffer was prepared by diluting one volume of 10× buffer with 9 volumes of degassed, filtered MilliQ water. Regeneration buffer (10 mM glycine) was prepared by dissolving glycine in MilliQ water and adjusting the pH to approximately 1.5-1.7. The assay was performed at 25° C. using HBS-EP+ as the running buffer. Antibodies were injected as capture on the Series S Sensor Chip Protein A. Antigens were diluted to multiple concentrations and injected over the surface of flow cell 1 and 2 as association phase, followed by injection of running buffer as dissociation phase.
All data were processed using the BIACORE™ 8K Evaluation software version 3.0. Flow cell 1 and blank injection of buffer in each cycle were used as double reference for Response Units (RU) subtraction. […] VH2+VL4 is a parental antibody (before affinity maturation).

Binder | EC50 (read off the curve) [1] | Kd [2] | koff [2] | kon [2]
B1 | ~0.5 µg/mL | 18.5 nM | 0.000714 s⁻¹ | 38500 M⁻¹ s⁻¹
B2 | ~0.6 µg/mL | 17.4 nM | 0.000744 s⁻¹ | 42600 M⁻¹ s⁻¹
B3 | ~0.4 µg/mL | 19.6 nM | 0.000679 s⁻¹ | 34700 M⁻¹ s⁻¹
